Results on three substances are retold here after US20160264649A1.

Among the targets are HIV-1 AC10 Env (HIV-1); HIV-1 CAAN Env (HIV-1); HIV-1 CAP45 Env (HIV-1); HIV-1 DU156 Env (HIV-1); HIV-1 DU422 Env (HIV-1); HIV-1 Du172 Env (HIV-1); HIV-1 PVO.4 Env (HIV-1); HIV-1 TR0.11 Env (HIV-1); HIV-1 ZM214 Env (HIV-1); HIV-1 ZM233 Env (HIV-1); HIV-1 ZM249 Env (HIV-1).
Common to all, as to test: cell-based or functional assay
Assay [1] addresses HIV-1 Env of isolate 92UG001 (subtype D) (HIV-1).
Assay [2] concerns the target HIV-1 Env of isolate 92UG005 (subtype D) (HIV-1).
The target in assay [3] is HIV-1 Env of isolate 92UG037 (subtype A) (HIV-1).
For assay [4], the target named is HIV-1 Env of isolate MGRM-Chronic-B-001 (subtype B) (HIV-1).
Assay [5] concerns the target HIV-1 Env of isolate MGRM-D-001 (subtype D) (HIV-1).
Assay [6] deals with HIV-1 Env of isolate NL43 (subtype B) (HIV-1).
The target of assay [7] is HIV-1 Env of isolate SF162 (subtype B) (HIV-1) (UniProt P19550).
The target of assay [8] is HIV-1 JR-FL Env E168K (HIV-1).
The target in assay [9] is HIV-1 REJ04541 Env (HIV-1).
Assay [10] addresses HIV-1 THRO.18 Env (HIV-1).
For assay [11], the target named is MuLV envelope (control pseudovirus).

1443_C16 (PG16) (TCN-116) (antibody), sequence (VH): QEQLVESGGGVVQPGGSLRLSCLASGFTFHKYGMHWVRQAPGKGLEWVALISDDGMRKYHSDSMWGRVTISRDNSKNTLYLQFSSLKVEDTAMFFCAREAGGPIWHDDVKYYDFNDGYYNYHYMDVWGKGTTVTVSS
1443_C16 (PG16) (TCN-116) (antibody), sequence (VL): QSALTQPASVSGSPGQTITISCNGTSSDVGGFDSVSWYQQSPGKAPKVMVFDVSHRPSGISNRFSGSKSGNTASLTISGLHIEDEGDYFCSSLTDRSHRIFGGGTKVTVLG

Turning to PGV04 (antibody), the IC50 (neutralization) in assay [1] came out at 0.553 mg/L; in [2], 0.44 mg/L. Also, the IC50 (pseudovirus neutralization) in assay [3] was 0.145 mg/L; in [5], over 50 mg/L. The half-maximal inhibitory concentration (IC50) in assay [4] came out at 0.048 mg/L. The IC50 (µg/mL), pseudovirus neutralization in [6] and in [7] was 0.028 µg/mL throughout.
For the substance 1443_C16 (PG16) (TCN-116) (antibody), the IC50, TZM-bl pseudovirus neutralization with HIV-1 AC10 Env (HIV-1) is under 0.01 mg/L; with HIV-1 CAAN Env (HIV-1) it was 6.37 mg/L; in the assay with HIV-1 CAP45 Env (HIV-1), under 0.01 mg/L; with HIV-1 DU156 Env (HIV-1), under 0.01 mg/L; with HIV-1 DU422 Env (HIV-1) it was 0.59 mg/L; in the assay with HIV-1 Du172 Env (HIV-1), under 0.01 mg/L. In addition, the IC50, TZM-bl pseudovirus neutralization in assay [8] is 0.006 mg/L; with HIV-1 PVO.4 Env (HIV-1), 12.3 mg/L; in assay [9], under 0.01 mg/L; in [10] it was 2.19 mg/L; with HIV-1 TR0.11 Env (HIV-1) it was 3.61 mg/L; in the assay with HIV-1 ZM214 Env (HIV-1) it was over 25 mg/L. Also, the values for the IC50, TZM-bl pseudovirus neutralization (in the assay with HIV-1 ZM233 Env (HIV-1); with HIV-1 ZM249 Env (HIV-1); in assay [11]) were under 0.01 mg/L, under 0.01 mg/L and over 25 mg/L, respectively.
Turning to VRC01 (antibody), the figures for the IC50 (neutralization) in assay [1] and in assay [2] were 1.16 mg/L and 0.576 mg/L, respectively. For the same substance, the IC50 (pseudovirus neutralization) in assay [3] was 0.245 mg/L; in assay [5], over 50 mg/L. The IC50 in [4] came out at 0.066 mg/L; in [6] it was 0.1 mg/L; in assay [7], 0.421 mg/L.

One may read the IC50 as the midpoint of a concentration-inhibition curve. The low end stands for higher potency, the high end for lower potency.
